Experimental data published in the supplement of paper PMC10567573.

B1: EPB41L3 (parent)
chain: SDYISEFRFAPNHTKELEDKVIEL

Variants of: B1
Test: protein stability index of a GFP-peptide fusion (GPS, HEK-293T) (PSI 1-6); higher = more stable
Conditions: c terminus: a fixed tail appended
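Also: lentivirally expressed fusions sorted by FACS into six bins by GFP to DsRed ratio, PSI derived from sequencing read proportions per bin multiplied by bin number.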

Point of comparison: SDYASEFRFAPNHTKELEDKVIEL [I4A], protein stability index 3.63. Against it:
- SDYISEFRFAPNGTKELEDKVIEL [H13G] — lower, 2.16
- SDYISEFRFAPNATKELEDKVIEL [H13A] — lower, 2.84
- SDYISEFRFAPNFTKELEDKVIEL [H13F] — lower, 1.92
- SDYISEFRFAPNCTKELEDKVIEL [H13C] — lower, 2.19
- SDYISEFRFAPNDTKELEDKVIEL [H13D] — higher, 3.71
- SDYISEFRFAPNETKELEDKVIEL [H13E] — lower, 3.3
- SDVISEFRFAPNHTKELEDKVIEL [Y3V] — lower, 1.97
- SDMISEFRFAPNHTKELEDKVIEL [Y3M] — lower, 2.29
- SDTISEFRFAPNHTKELEDKVIEL [Y3T] — lower, 3.06
- SDPISEFRFAPNHTKELEDKVIEL [Y3P] — lower, 2.4
- SDSISEFRFAPNHTKELEDKVIEL [Y3S] — lower, 3.59
- SDNISEFRFAPNHTKELEDKVIEL [Y3N] — lower, 3.18
- SDQISEFRFAPNHTKELEDKVIEL [Y3Q] — lower, 3.28
- SDLISEFRFAPNHTKELEDKVIEL [Y3L] — lower, 2.08
- SDKISEFRFAPNHTKELEDKVIEL [Y3K] — lower, 2.69
- SDRISEFRFAPNHTKELEDKVIEL [Y3R] — lower, 2.34
- SDWISEFRFAPNHTKELEDKVIEL [Y3W] — lower, 2.39
- SDYISEFLFAPNHTKELEDKVIEL [R8L] — lower, 3.24
- SDYISEFQFAPNHTKELEDKVIEL [R8Q] — higher, 4.1
- SDYISEFPFAPNHTKELEDKVIEL [R8P] — higher, 4.4
- SDYISEFAFAPNHTKELEDKVIEL [R8A] — higher, 3.7
- SDYISEFFFAPNHTKELEDKVIEL [R8F] — lower, 2.04
- SDYISEFTFAPNHTKELEDKVIEL [R8T] — higher, 3.99
- SDYISEFIFAPNHTKELEDKVIEL [R8I] — lower, 3.24
- SDYISEFSFAPNHTKELEDKVIEL [R8S] — higher, 4.3
- SDYISEFDFAPNHTKELEDKVIEL [R8D] — higher, 4.51
- SDYISEFEFAPNHTKELEDKVIEL [R8E] — higher, 4.47
- SDYISEFHFAPNHTKELEDKVIEL [R8H] — higher, 4.48
- SDYISEFNFAPNHTKELEDKVIEL [R8N] — higher, 3.94
- SDYISEFMFAPNHTKELEDKVIEL [R8M] — lower, 3.49
- SDYISEFWFAPNHTKELEDKVIEL [R8W] — lower, 3.17
- SDYISEFCFAPNHTKELEDKVIEL [R8C] — higher, 4.05
- SDYISEFYFAPNHTKELEDKVIEL [R8Y] — lower, 3.31
- SDYISEFVFAPNHTKELEDKVIEL [R8V] — lower, 3.39
- SDYISEFGFAPNHTKELEDKVIEL [R8G] — higher, 4.38
- SDYISEFKFAPNHTKELEDKVIEL [R8K] — higher, 4.26
- SDYISEFRKAPNHTKELEDKVIEL [F9K] — higher, 4.29
- SDYISEFRGAPNHTKELEDKVIEL [F9G] — higher, 4.6
- SDYISEFRTAPNHTKELEDKVIEL [F9T] — higher, 4.24
- SDYISEFRPAPNHTKELEDKVIEL [F9P] — higher, 4.76
- SDYISEFRRAPNHTKELEDKVIEL [F9R] — higher, 4.58
- SDYISEFRLAPNHTKELEDKVIEL [F9L] — higher, 4.09
- SDYISEFRHAPNHTKELEDKVIEL [F9H] — higher, 4.41
- SDYISEFRQAPNHTKELEDKVIEL [F9Q] — higher, 4.63
- SDYISEFRMAPNHTKELEDKVIEL [F9M] — higher, 4.03
- SDYISEFRNAPNHTKELEDKVIEL [F9N] — higher, 4.59
- SDYISEFREAPNHTKELEDKVIEL [F9E] — higher, 4.97
- SDYISEFRYAPNHTKELEDKVIEL [F9Y] — lower, 2.25
- SDYISEFRDAPNHTKELEDKVIEL [F9D] — higher, 4.97
- SDYISEFRVAPNHTKELEDKVIEL [F9V] — higher, 4.44
- SDYISEFRWAPNHTKELEDKVIEL [F9W] — lower, 3.54
- SDYISEFRSAPNHTKELEDKVIEL [F9S] — higher, 4.79
- SDYISEFRCAPNHTKELEDKVIEL [F9C] — higher, 3.93
- SDYISEFRAAPNHTKELEDKVIEL [F9A] — higher, 4.79
- SDYISEFRIAPNHTKELEDKVIEL [F9I] — higher, 3.83
- SDYISEFRFADNHTKELEDKVIEL [P11D] — higher, 4.29
- SDYISEFRFAMNHTKELEDKVIEL [P11M] — lower, 2.65
- SDYISEFRFALNHTKELEDKVIEL [P11L] — lower, 2.11
- SDYISEFRFAFNHTKELEDKVIEL [P11F] — lower, 2.16
- SDYISEFRFAGNHTKELEDKVIEL [P11G] — lower, 2.44
- SDYISEFRFARNHTKELEDKVIEL [P11R] — lower, 2.64
- SDYISEFRFAQNHTKELEDKVIEL [P11Q] — lower, 2.57
- SDYISEFRFASNHTKELEDKVIEL [P11S] — lower, 2.26
- SDYISEFRFAINHTKELEDKVIEL [P11I] — lower, 2.49
- SDYISEFRFAHNHTKELEDKVIEL [P11H] — lower, 1.88
- SDYISEFRFAKNHTKELEDKVIEL [P11K] — lower, 2.3
- SDYISEFRFACNHTKELEDKVIEL [P11C] — lower, 2.12
- SDYISEFRFAANHTKELEDKVIEL [P11A] — lower, 2.68
- SDYISEFRFAVNHTKELEDKVIEL [P11V] — lower, 2.23
- SDYISEFRFANNHTKELEDKVIEL [P11N] — lower, 2.26
- SDYISEFRFAENHTKELEDKVIEL [P11E] — higher, 4.36
- SDYISEFRFATNHTKELEDKVIEL [P11T] — lower, 2.82
- SDYISEFRFAWNHTKELEDKVIEL [P11W] — lower, 2.33
- SDYISEFRFAYNHTKELEDKVIEL [P11Y] — lower, 1.8
- SDYFSEFRFAPNHTKELEDKVIEL [I4F] — lower, 2.77
- SDYVSEFRFAPNHTKELEDKVIEL [I4V] — lower, 3.02
- SDYQSEFRFAPNHTKELEDKVIEL [I4Q] — higher, 3.98
- SDYMSEFRFAPNHTKELEDKVIEL [I4M] — lower, 3.18
- SDYNSEFRFAPNHTKELEDKVIEL [I4N] — higher, 4.27
- SDYRSEFRFAPNHTKELEDKVIEL [I4R] — lower, 3.13
- SDYSSEFRFAPNHTKELEDKVIEL [I4S] — lower, 3.49
- SDYCSEFRFAPNHTKELEDKVIEL [I4C] — lower, 3.6
- SDYKSEFRFAPNHTKELEDKVIEL [I4K] — lower, 3.23
- SDYTSEFRFAPNHTKELEDKVIEL [I4T] — lower, 2.65
- SDYESEFRFAPNHTKELEDKVIEL [I4E] — higher, 3.92
- SDYHSEFRFAPNHTKELEDKVIEL [I4H] — higher, 3.96
- SDYYSEFRFAPNHTKELEDKVIEL [I4Y] — higher, 3.65
- SDYDSEFRFAPNHTKELEDKVIEL [I4D] — higher, 4.2
- SDYPSEFRFAPNHTKELEDKVIEL [I4P] — higher, 3.76
- SDYWSEFRFAPNHTKELEDKVIEL [I4W] — lower, 3.03
- SDYLSEFRFAPNHTKELEDKVIEL [I4L] — lower, 2.36
- SDYGSEFRFAPNHTKELEDKVIEL [I4G] — higher, 4.11
- SDYISEFRFAPYHTKELEDKVIEL [N12Y] — lower, 2.1
